Experimental data reported in PMC10723718 (PLOS Genetics, 2023).

B1: His6-tagged PrrBC (cytoplasmic region of PrrB comprising C-terminal residues 200 to 446) (domain or fragment)
chain: ASEAIEIAEAMRGMLQRIWNEQNRTKEALASARDFAAVSSHELRTPLTAMRTNLEVLSTLDLPDDQRKEVLNDVIRTQSRIEATLSALERLAQGELSTSDDHVPVDITDLLDRAAHDAARIYPDLDVSLVPSPTCIIVGLPAGLRLAVDNAIANAVKHGGATLVQLSAVSSRAGVEIAIDDNGSGVPEGERQVVFERFSRGSTASHSGSGLGLALVAQQAQLHGGTASLENSPLGGARLVLRLPGPS
notes: PrrB, sensor kinase, M. tuberculosis, cytoplasmic domain residues 200-446 (247 amino acids); also called His6-PrrBC; His-PrrBC; not shown: His6, N-terminal, kept
B2: GST-PhoRC (domain or fragment)
chain: TAAAIGAGQLDRRVPQWHPRTEVGRLSLALNGMLAQIQRAVASAESSAEKARDSEDRMRQFITDASHELRTPLTTIRGFAELYRQGAARDVGMLLSRIESEASRMGLLVDDLLLLARLDAHRPLELCRVDLLALASDAAHDARAMDPKRRITLEVLDGPGTPEVLGDESRLRQVLRNLVANAIQHTPESADVTVRVGTEGDDAILEVADDGPGMSQEDALRVFERFYRADSSRARASGGTGLGLSIVDSLVAAHGGAVTVTTALGEGCCFRVSLPRVSDVDQLSLTPVVPGPP
notes: PhoR, sensor kinase, M. tuberculosis, cytoplasmic domain PhoRC, residues 193-485 (C-terminal 293 residues); also called GST-tagged PhoRC

How the values were obtained:
[1] = biological target: T1, GST-PhoP (M. tuberculosis, UniProt P71814 1-247); assay: pull-down; conditions: both partners purified
T1 construct: PhoP, response regulator, M. tuberculosis; also called GST-tagged PhoP

[2] = biological target: T2, His6-PhoP (M. tuberculosis, UniProt P71814 1-247); assay: pull-down; conditions: both partners purified
T2 construct: PhoP, response regulator, M. tuberculosis, full length (247 amino acids); also called His-PhoP; not shown: His6, N-terminal, kept

| Binder | binding result [1] | binding result [2] |
| --- | --- | --- |
| B1 | binds | – |
| B2 | – | binds |
